Data set [1] has as its target PALB2 coiled-coil (Homo sapiens) (UniProt Q86YC2). The data set is described as follows: NMR titration. The conditions noted are these: cited from earlier work.
Data set [2] concerns the molecule itself. The data set is described as follows: AUC; sedimentation velocity with Cy3-labelled ssDNA (Cy3-dT50 or Cy3-dT25), DNA:protein molar ratios 1:2 and 1:4 (4 and 8 μM protein), 0.1 M NaCl, 10% glycerol, 1 mM TCEP, 2 mM CHAPS, 25 mM HEPES pH 7.5, 20°C, absorbance at 550 nm; dimers to tetramer.
Data set [3] concerns the molecule itself. The data set is described as follows: AUC; sedimentation velocity, protein alone; 1 M NaCl, 10% glycerol, 1 mM TCEP, 2 mM CHAPS, 25 mM HEPES pH 7.5; 30,000 rpm, 20°C, absorbance at 280 nm; relatively high protein concentration.
Data set [4] deals with T1, PALB2-DBD (Homo sapiens, UniProt Q86YC2 1-195, I195W).
T1 sequence: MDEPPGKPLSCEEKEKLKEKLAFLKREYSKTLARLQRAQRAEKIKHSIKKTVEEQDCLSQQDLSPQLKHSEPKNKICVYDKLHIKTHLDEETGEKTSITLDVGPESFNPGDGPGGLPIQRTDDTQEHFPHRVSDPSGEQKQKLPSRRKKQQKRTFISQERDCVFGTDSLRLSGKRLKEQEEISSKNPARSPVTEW
Nature of the data set: analytical ultracentrifugation; DNA:protein 1:2 and 1:4; no free DNA peak; 0.1 M NaCl; AUC of DNA complexes: 0.1 M NaCl, 20 C; smFRET, EPR and CD buffers not in the material. The conditions noted are these: protein: recombinant; tags: 6xHis-SUMO and MBP, cleaved by Ulp1/TEV; chain copies: 2; label: 5' Cy3; single strand.

Data set [5] concerns the target T1, PALB2-DBD. The data set is described as follows: smFRET; mean FRET 0.18 free, 0.45 and 0.79 bound; AUC of DNA complexes: 0.1 M NaCl, 20 C; smFRET, EPR and CD buffers not in the material. To be noted: protein: recombinant; tags: 6xHis-SUMO and MBP, cleaved by Ulp1/TEV; chain copies: 2; label: 5' Cy3, Cy5 at position 50; single strand.
For data set [6], the target named is T1, PALB2-DBD. The data set is described as follows: analytical ultracentrifugation; DNA:protein 1:2 and 1:4; 0.1 M NaCl; AUC of DNA complexes: 0.1 M NaCl, 20 C; smFRET, EPR and CD buffers not in the material. To be noted: protein: recombinant; tags: 6xHis-SUMO and MBP, cleaved by Ulp1/TEV; chain copies: 2; label: Cy3; single strand.

For the molecule PALB2 coiled-coil (from UniProt Q86YC2), in data set [1], the Kd (commonly the constant that tells how readily two partners part at equilibrium) is 80 µM.

B1: PALB2 DNA-binding domain (PALB2-DBD), N-terminal fragment 1-195 I195W (domain or fragment, human, UniProt Q86YC2 1-195, looked up)
chain: T1 sequence
notes: Partner and Localizer of BRCA2 (PALB2), human, amino acids 1-195; the last amino acid mutated to tryptophan to increase absorption at 280 nm; SUMO cleaved with Ulp1 and MBP with TEV protease; also called PLAB2-DBD; source: E. coli BL21*, purified (amylose resin, heparin, gel filtration); not shown: 6×His-SUMO, N-terminal, cleaved; MBP, C-terminal, cleaved
For the molecule B1, the figures for the “stoichiometry N” value in data set [2] and in data set [3] were 4 and 2, respectively.

TGGCGACGGCAGCGAGGCTCTCTAC (ssDNA) [Cy3-dT25 (25mer)]: in the data set with PALB2-DBD [4], the binding result is “binds”.

TTTTTTTTTTTTTTTTTTTTTTTTTTTTTTTTTTTTTTTTTTTTTTTTTT (ssDNA) [Cy3-dT50-Cy5]: the binding result with PALB2-DBD [5] was “binds”.

For the molecule TTTTTTTTTTTTTTTTTTTTTTTTTTTTTTTTTTTTTTTTTTTTTTTTTT (ssDNA) [Cy3-dT50], the binding result with PALB2-DBD [6] is given as “binds”.

Source of the values: publication PMC10543426, “The PALB2 DNA-binding domain is an intrinsically disordered recombinase” (Research Square, 2023).
